This assay has as its target T1, His-tagged, wild-type DNA polymerase IV (Pol IV) (Escherichia coli, UniProt Q47155 1-351).
T1 sequence (looked up): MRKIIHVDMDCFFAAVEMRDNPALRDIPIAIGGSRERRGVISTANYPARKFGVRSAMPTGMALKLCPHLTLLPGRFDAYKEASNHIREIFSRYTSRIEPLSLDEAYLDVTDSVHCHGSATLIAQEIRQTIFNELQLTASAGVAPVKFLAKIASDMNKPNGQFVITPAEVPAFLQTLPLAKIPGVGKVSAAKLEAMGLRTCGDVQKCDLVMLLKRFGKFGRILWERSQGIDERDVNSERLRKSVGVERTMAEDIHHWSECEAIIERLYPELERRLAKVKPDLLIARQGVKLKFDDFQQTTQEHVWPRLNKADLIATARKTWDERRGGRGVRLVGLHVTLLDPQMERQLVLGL
The assay is described as follows: pull-down.

For the molecule WMDFDDDIPF [SSB-Ct peptide (Trp–Met–Asp–Phe–Asp–Asp–Asp–Ile–Pro–Phe)], the binding result is reported as “binds”.

For the origin of these results see publication PMC3401449 (Nucleic Acids Research, 2012).
